Paper PMC11208146, “Molecular basis for transposase activation by a dedicated AAA+ ATPase” (Nature, 2024)
Positions count from the first letter of the chain named. Names and notes keep the numbering of the source. Values joined by “and” are separate entries in the source; they are usually repeats but may differ in a detail not shown here. Equal entries are not always repeated.

B1: IstB ATPase, wild type, full length (IS5376, Geobacillus stearothermophilus) (enzyme, UniProt Q45619 1-251, looked up)
chain: MKERIHEYCHRLHLPVMAERWSAMAEYASTHNISYSEFLFRLLEAEIVEKQARSIQTLIKLSKLPYRKTIDTFDFTAQPSVDERRIRELLTLSFIDRKENILFLGPPGIGKTHLAISIGMEAIARGYKTYFITAHDLVNQLRRADQEGKLEKKLRVFVKPTVLIIDEMGYLKLDPNSAHYLFQVIARRYEHAPIILTSNKSFGEWGEIVGDSVLATAMLDRLLHHSIIFNLKGESYRLREKRLQEEKQKDQ
notes: IstB, AAA+ ATPase of the IS21 family member IS5376, Geobacillus stearothermophilus, full length; Tag cleaved on-column with PreScission protease; Assembles into a pentamer of dimers (decamer) on DNA with ATP; also called IstB WT; IstB AAA+ ATPase regulator; source: E. coli BL21 codon-plus (DE3) RIL, purified (Ni-Sepharose, amylose resin, gel filtration); not shown: His6, N-terminal, cleaved; MBP, …
B2: IstB E167Q (Walker B mutant) (enzyme, Geobacillus stearothermophilus, UniProt Q45619 1-251, looked up)
chain: B1 chain with E167Q
notes: IstB, AAA+ ATPase of IS5376, Geobacillus stearothermophilus, with the Walker B mutation E167Q; The methods describe only the purification of full-length IstB (His6-MBP tag, cleaved); also called WB; source: purified

Key:
[1] = molecular target: the molecule itself; experiment: cryo-EM structure; IstB wild type with a 60-mer duplex DNA (6.5:1) and 1 mM ATP; 20 mM HEPES pH 7.5, 150 mM NaCl, 5 mM MgCl2, 1 mM DTT; 3.2 Å
[2] = molecular target: the molecule itself; experiment: cryo-EM structure; IstA pre-incubated with strand-transfer-complex DNA (3.3:1), then IstB E167Q (5:1 to IstA), 37 °C; 20 mM HEPES pH 7.5, 150 mM NaCl, 5 mM MgCl2, 1 mM ATP, 1 mM DTT; 3.6 Å

Row | Protein | stoichiometry N [1] | stoichiometry N [2]
1 | B1 | 10 and 8 | –
2 | B2 | – | 10 and 20
